Article PMC9226200
Values joined by “and” are separate entries in the source; they are usually repeats but may differ in a detail not shown here. Equal entries are not always repeated.

Molecular target: PKM2 (mouse (endogenous in splenic B cells of C57BL/6J mice)) (UniProt P52480)
Assay: cross-linking; lysates of purified CD19+ splenic B cells from C57BL/6J mice cultured with or without Hcy (100 μmol/L) for 24 h, cross-linked with glutaraldehyde; Western blot for PKM2 oligomer states

Sequence of PKM2, P52480 1-531 (enzyme; other documents disagree on this pair) (P52480 whole entry): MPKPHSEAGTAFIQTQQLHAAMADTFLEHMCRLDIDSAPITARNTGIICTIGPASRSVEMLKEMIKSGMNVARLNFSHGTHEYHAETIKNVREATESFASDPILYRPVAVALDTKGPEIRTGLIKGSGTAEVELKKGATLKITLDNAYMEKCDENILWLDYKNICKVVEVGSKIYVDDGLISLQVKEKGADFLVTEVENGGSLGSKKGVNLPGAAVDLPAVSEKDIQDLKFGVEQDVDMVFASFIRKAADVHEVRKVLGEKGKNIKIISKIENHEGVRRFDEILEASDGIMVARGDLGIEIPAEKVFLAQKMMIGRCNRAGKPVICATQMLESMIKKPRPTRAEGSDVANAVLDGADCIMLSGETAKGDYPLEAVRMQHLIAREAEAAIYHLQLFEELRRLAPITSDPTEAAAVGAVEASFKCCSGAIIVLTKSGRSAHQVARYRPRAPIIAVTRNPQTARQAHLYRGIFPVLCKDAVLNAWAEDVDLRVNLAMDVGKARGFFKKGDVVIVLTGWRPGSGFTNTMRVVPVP

PKM2, P52480 1-531 (enzyme; other documents disagree on this pair)
stoichiometry N: 4 and 2
